Common to all, as to experiment: cell_activity
One data set relates to TALEN 103076 (synthetic). As to conditions: pair with 103075; K562, 400 ng.
A further data set concerns TALEN 103074 (synthetic). As to conditions: pair with 103073; K562, 400 ng.
The next data set deals with TALEN 103079 (synthetic). As to conditions: pair with 103080; K562, 400 ng.
The subject of the next data set is TALEN 103063 (synthetic). The following applies: pair with 103064; K562, 400 ng.
For another data set, the system named is TALEN 103056 (synthetic). The following applies: pair with 103055; K562, 400 ng.
The test system of the next data set is TALEN 103073 (synthetic). As to conditions: pair with 103074; K562, 400 ng.
The next data set has as its system TALEN 103052 (synthetic). As to conditions: pair with 103051; K562, 400 ng.
The subject of the next data set is TALEN 103081 (synthetic). As to conditions: pair with 103082; K562, 400 ng.
In the next data set the test system is TALEN 103065 (synthetic). As to conditions: pair with 103066; K562, 400 ng.
In another data set the test system is TALEN 103050 (synthetic). The following applies: pair with 103049; K562, 400 ng.
In a further data set the test system is TALEN 103070 (synthetic). The following applies: pair with 103069; K562, 400 ng.
The subject of a further data set is TALEN 103057 (synthetic). The following applies: pair with 103058; K562, 400 ng.
For a further data set, the system named is TALEN 103068 (synthetic). The following applies: pair with 103067; K562, 400 ng.
In another data set the test system is TALEN 103069 (synthetic). As to conditions: pair with 103070; K562, 400 ng.
The subject of a further data set is TALEN 103055 (synthetic). As to conditions: pair with 103056; K562, 400 ng.
In another data set the test system is TALEN 103053 (synthetic). The following applies: pair with 103054; K562, 400 ng.
A further data set has as its system TALEN 103071 (synthetic). As to conditions: pair with 103072; K562, 400 ng.
A further data set relates to TALEN 103049 (synthetic). As to conditions: pair with 103050; K562, 400 ng.
The next data set relates to TALEN 103061 (synthetic). As to conditions: pair with 103062; K562, 400 ng.
Another data set deals with TALEN 103051 (synthetic). The following applies: pair with 103052; K562, 400 ng.
The next data set deals with TALEN 103066 (synthetic). The following applies: pair with 103065; K562, 400 ng.
The test system of a further data set is TALEN 103062 (synthetic). The following applies: pair with 103061; K562, 400 ng.
In the next data set the test system is TALEN 103082 (synthetic). The following applies: pair with 103081; K562, 400 ng.
The next data set deals with TALEN 103067 (synthetic). The following applies: pair with 103068; K562, 400 ng.
The subject of the next data set is TALEN 103064 (synthetic). The following applies: pair with 103063; K562, 400 ng.
For a further data set, the system named is TALEN 103072 (synthetic). The following applies: pair with 103071; K562, 400 ng.
Another data set relates to TALEN 103058 (synthetic). As to conditions: pair with 103057; K562, 400 ng.
For the next data set, the system named is TALEN 103077 (synthetic). The following applies: pair with 103078; K562, 400 ng.
The test system of another data set is TALEN 103075 (synthetic). The following applies: pair with 103076; K562, 400 ng.
Another data set deals with TALEN 103054 (synthetic). As to conditions: pair with 103053; K562, 400 ng.
Another data set relates to TALEN 103083 (synthetic). As to conditions: pair with 103084; K562, 400 ng.
In data set [1] the test system is SBS55254 ZFN (TCRA) (synthetic). As to conditions: pair with 55248; T cells, TRAC 180, day 10.

In the case of “GTCAACTTCAATGTCGGATGG (double strand) [TALEN 103076 site]”, the activity with TALEN 103076 (synthetic) came out at 1.5 % indel. Turning to “ATAGCAATTCAGGAAATTTGA (double strand) [TALEN 103074 site]”, the activity in the data set on TALEN 103074 (synthetic) was found to be 3 % indel.

On to “ATGTGTCTGGGTTTCATCCAT (double strand) [TALEN 103079 site]”, for which the activity in the data set on TALEN 103079 (synthetic) amounted to 42.3 % indel. Sequence “TTTTCCCGATATTCCTCAGGT (double strand) [TALEN 103063 site]” yielded an activity in the data set on TALEN 103063 (synthetic) of 14.8 % indel. “CTGGATAGCCTCCAGGCCAGA (double strand) [TALEN 103056 site]” showed an activity with TALEN 103056 (synthetic) of 25.1 % indel. As to “CTCACGTCATCCAGCAGAGAA (double strand) [TALEN 103073 site]”, the activity with TALEN 103073 (synthetic) was 3 % indel. For the sequence “CTCCAGGCCAGAAAGAGAGAG (double strand) [TALEN 103052 site]”, the activity in the data set with TALEN 103052 (synthetic) was 63.8 % indel.

As to “GTCTGGGTTTCATCCATCCGA (double strand) [TALEN 103081 site]”, in the data set with TALEN 103081 (synthetic), the activity turned out to be 27.5 % indel. The sequence “TTCCTCAGGTACTCCAAAGAT (double strand) [TALEN 103065 site]” gave an activity with TALEN 103065 (synthetic) of 41.2 % indel. In the data set on TALEN 103050 (synthetic), “GTAGCGCGAGCACAGCTAAGG (double strand) [TALEN 103050 site]” showed an activity of 19.5 % indel. As for “TTTCCATTCTCTGCTGGATGA (double strand) [TALEN 103070 site]”, the activity with TALEN 103070 (synthetic) stood at 27.9 % indel. Consider “CTGTGCTCGCGCTACTCTCTC (double strand) [TALEN 103057 site]”, for which, in the data set with TALEN 103057 (synthetic), the activity worked out at 46.2 % indel. “ATTCTCTGCTGGATGACGTGA (double strand) [TALEN 103068 site]”: the activity in the data set with TALEN 103068 (synthetic) came out at 49.3 % indel. “GTACTCCAAAGATTCAGGTTT (double strand) [TALEN 103069 site]” yielded an activity with TALEN 103069 (synthetic) of 27.9 % indel. In the data set with TALEN 103055 (synthetic), “CTTAGCTGTGCTCGCGCTACT (double strand) [TALEN 103055 site]” came in with an activity of 25.1 % indel.

In the data set with TALEN 103053 (synthetic), “GTGGCCTTAGCTGTGCTCGCG (double strand) [TALEN 103053 site]” showed an activity of 32.4 % indel. “CTCCAAAGATTCAGGTTTACT (double strand) [TALEN 103071 site]” had an activity in the data set on TALEN 103071 (synthetic) of 13.3 % indel. In the case of “ATTCGGGCCGAGATGTCTCGC (double strand) [TALEN 103049 site]”, the activity in the data set on TALEN 103049 (synthetic) was determined as 19.5 % indel. Take “GTGTCTTTTCCCGATATTCCT (double strand) [TALEN 103061 site]”: the activity with TALEN 103061 (synthetic) stood at 22.9 % indel. The sequence “CTCCGTGGCCTTAGCTGTGCT (double strand) [TALEN 103051 site]” showed an activity with TALEN 103051 (synthetic) of 63.8 % indel. “CTCTGCTGGATGACGTGAGTA (double strand) [TALEN 103066 site]”: the activity with TALEN 103066 (synthetic) came to 41.2 % indel. As for “GTGAGTAAACCTGAATCTTTG (double strand) [TALEN 103062 site]”, in the data set on TALEN 103062 (synthetic), the activity came to 22.9 % indel.

Turning to “CTCCATTCTTCAGTAAGTCAA (double strand) [TALEN 103082 site]”, the activity in the data set with TALEN 103082 (synthetic) is 27.5 % indel.

As for “CTCAGGTACTCCAAAGATTCA (double strand) [TALEN 103067 site]”, the activity in the data set on TALEN 103067 (synthetic) turned out to be 49.3 % indel. With “ATGACGTGAGTAAACCTGAAT (double strand) [TALEN 103064 site]”, the activity in the data set on TALEN 103064 (synthetic) stood at 14.8 % indel. In the data set on TALEN 103072 (synthetic), “TTGACTTTCCATTCTCTGCTG (double strand) [TALEN 103072 site]” came in with an activity of 13.3 % indel. “CTCACGCTGGATAGCCTCCAG (double strand) [TALEN 103058 site]”: the activity in the data set on TALEN 103058 (synthetic) was 46.2 % indel.

The sequence “CTATGTGTCTGGGTTTCATCC (double strand) [TALEN 103077 site]” returned an activity with TALEN 103077 (synthetic) of 17.1 % indel. Take “TTCCTGAATTGCTATGTGTCT (double strand) [TALEN 103075 site]”: the activity with TALEN 103075 (synthetic) came to 1.5 % indel. As to “ATAGCCTCCAGGCCAGAAAGA (double strand) [TALEN 103054 site]”, the activity with TALEN 103054 (synthetic) stood at 32.4 % indel. As for “TTTCATCCATCCGACATTGAA (double strand) [TALEN 103083 site]”, in the data set on TALEN 103083 (synthetic), the activity amounted to 32.2 % indel.

With “CTCCTGAAAGTGGCCGGGTTTAATCTGC (double strand) [TCRA 55254 site]”, the activity in [1] was determined as 66 % indel.

Values taken from patent US20220175839.
